Source: patent US20240092919A1 (Ablynx, published 2024)

T1: Cynomolgus TCR(AEA41865/AEA41866)-zipper protein (cynomolgus monkey)
T1 construct: also called cyTCR-zipper protein; cynoTCR zipper
T1 TCR alpha: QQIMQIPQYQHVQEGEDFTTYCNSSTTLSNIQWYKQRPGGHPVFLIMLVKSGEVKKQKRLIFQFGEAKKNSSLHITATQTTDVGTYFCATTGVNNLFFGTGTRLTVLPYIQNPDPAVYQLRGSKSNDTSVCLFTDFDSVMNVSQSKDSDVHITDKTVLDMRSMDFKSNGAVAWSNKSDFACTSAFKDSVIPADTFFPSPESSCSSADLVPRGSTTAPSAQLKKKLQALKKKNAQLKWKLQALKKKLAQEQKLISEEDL
T1 TCR beta: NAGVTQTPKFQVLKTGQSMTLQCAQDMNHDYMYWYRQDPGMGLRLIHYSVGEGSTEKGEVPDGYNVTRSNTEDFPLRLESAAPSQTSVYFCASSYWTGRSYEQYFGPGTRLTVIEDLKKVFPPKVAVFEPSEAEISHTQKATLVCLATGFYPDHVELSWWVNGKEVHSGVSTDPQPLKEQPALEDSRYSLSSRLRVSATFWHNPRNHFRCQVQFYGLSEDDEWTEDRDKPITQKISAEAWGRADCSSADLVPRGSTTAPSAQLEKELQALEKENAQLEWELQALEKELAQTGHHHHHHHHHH

B1: T017000386 (VHH)
VHH: EVQLVESGGGVVQPGGSLRLSCVASGSVHKLNFLGWYRQAPGKEREKVAHISIGDQTDYADSAKGRFTISRDESKNMVYLQMNSLRPEDTALYFCRAFSRIWPYDWWGQGTLVTVSS
B2: T017000443 (VHH)
VHH: EVQLVESGGGVVQPGGSLRLSCVASWDVHQINFYGWYRQAPGKEREKVAHISIGDQTDYADSAKGRFTISRDESKNMVYLQMNSLRPEDTALYFCRAMSKIYPYDYWGQGTLVTVSS
B3: T017000473 (VHH)
VHH: EVQLVESGGGVVQPGGSLRLSCVASGYVHQINFYGWYRQAPGKEREKVAHISIGDQTDYADSAKGRFTISRDESKNMVYLQMNSLRPEDTALYFCRAMSRIYPYDYWGQGTLVTVSS
B4: T017000505 (VHH)
VHH: EVQLVESGGGVVQPGGSLRLSCVASGDVHQLNFLGWYRQAPGKEREKVAHISIGDQTDYADSAKGRFTISRDESKNMVYLQMNSLRPEDTALYFCRAFSKIYPYDYWGQGTLVTVSS
B5: T017000450 (VHH)
VHH: EVQLVESGGGVVQPGGSLRLSCVASGYVHQINFLGWYRQAPGKEREKVAHISIGDQTDYADSAKGRFTISRDESKNMVYLQMNSLRPEDTALYFCRAMSRIWPYDYWGQGTLVTVSS
B6: T017000499 (VHH)
VHH: EVQLVESGGGVVQPGGSLRLSCVASGYVHKLNFLGWYRQAPGKEREKVAHISIGDQTDYADSAKGRFTISRDESKNMVYLQMNSLRPEDTALYFCRAMSRIWPYDYWGQGTLVTVSS
B7: T017000418 (VHH)
VHH: EVQLVESGGGVVQPGGSLRLSCVASGAVHKLNFYGWYRQAPGKEREKVAHISIGDQTDYADSAKGRFTISRDESKNMVYLQMNSLRPEDTALYFCRAMSRIYPYDYWGQGTLVTVSS
B8: T017000423 (VHH)
VHH: EVQLVESGGGVVQPGGSLRLSCVASGSVHQINFLGWYRQAPGKEREKVAHISIGDQTDYADSAKGRFTISRDESKNMVYLQMNSLRPEDTALYFCRAMSRIWPYDYWGQGTLVTVSS
B9: T017000391 (VHH)
VHH: EVQLVESGGGVVQPGGSLRLSCVASGAVHKINFYGWYRQAPGKEREKVAHISIGDQTDYADSAKGRFTISRDESKNMVYLQMNSLRPEDTALYFCRAMSRIYPYDYWGQGTLVTVSS
B10: T017000401 (VHH)
VHH: EVQLVESGGGVVQPGGSLRLSCVASGSVHKINFYGWYRQAPGKEREKVAHISIGDQTDYADSAKGRFTISRDESKNMVYLQMNSLRPEDTALYFCRAMSRIWPYDWWGQGTLVTVSS
B11: T017000509 (VHH)
VHH: EVQLVESGGGVVQPGGSLRLSCVASGAVHKINFLGWYRQAPGKEREKVAHISIGDQTDYADSAKGRFTISRDESKNMVYLQMNSLRPEDTALYFCRAMSKIWPYDWWGQGTLVTVSS
B12: T017000530 (VHH)
VHH: EVQLVESGGGVVQPGGSLRLSCVASGAVHKLNFLGWYRQAPGKEREKVAHISIGDQTDYADSAKDRFTISRDESKNMVYLQMNSLRPEDTALYFCRAMSRIYPYDYWGQGTLVTVSS
B13: T017000518 (VHH)
VHH: EVQLVESGGGVVQPGGSLRLSCVASYSVHQLNFLGWYRQAPGKEREKVAHISIGDQTDYADSAKGRFTISRDESKNMVYLQMNSLRPEDTALYFCRAMSRIWPYDYWGQGTLVTVSS
B14: T017000432 (VHH)
VHH: EVQLVESGGGVVQPGGSLRLSCVASGSVHKLNFYGWYRQAPGKEREKVAHISIGDQTDYADSAKGRFTISRDESKNMVYLQMNSLRPEDTALYFCRAMSKIWPYDYWGQGTLVTVSS
B15: T017000411 (VHH)
VHH: EVQLVESGGGVVQPGGSLRLSCVASWDVHKINFYGWYRQAPGKEREKVAHISIGDQTDYADSAKGRFTISRDESKNMVYLQMNSLRPEDTALYFCRAMSRIWPYDYWGQGTLVTVSS
B16: T017000413 (VHH)
VHH: EVQLVESGGGVVQPGGSLRLSCVASWDVHQLNFYGWYRQAPGKEREKVAHISIGDQTDYADSAKGRFTISRDESKNMVYLQMNSLRPEDTALYFCRAMSKIWPYDYWGQGTLVTVSS
B17: T017000531 (VHH)
VHH: EVQLVESGGGVVQPGGSLRLSCVASGSVHKINFLGWYRQAPGKEREKVAHISIGDQTDYADSAKGRFTISRDESKNMVYLQMNSLRPEDTALYFCRAMSRIWPYDWWGQGTLVTVSS
B18: T017000403 (VHH)
VHH: EVQLVESGGGVVQPGGSLRLSCVASWDVHQINFLGWYRQAPGKEREKVAHISIGDQTDYADSAKGRFTISRDESKNMVYLQMNSLRPEDTALYFCRAMSRIWPYDYWGQGTLVTVSS
B19: T017000398 (VHH)
VHH: EVQLVESGGGVVQPGGSLRLSCVASYDVHQINFYGWYRQAPGKEREKVAHISIGDQTDYADSAKGRFTISRDESKNMVYLQMNSLRPEDTALYFCRAMSRIWPYDYWGQGTLVTVSS
B20: T017000521 (VHH)
VHH: EVQLVESGGGVVQPGGSLRLSCVASGSVHQLNFYGWYRQAPGKEREKVAHISIGDQTDYADSAKGRFTISRDESKNMVYLQMNSLRPEDTALYFCRAMSRIWPYDYWGQGTLVTVSS
B21: T017000498 (VHH)
VHH: EVQLVESGGGVVQPGGSLRLSCVASGAVHKINFYGWYRQAPGKEREKVAHISIGDQTDYADSAKGRFTISRDESKNMVYLQMNSLRPEDTALYFCRAMSRIWPYDWWGQGTLVTVSS
B22: T017000440 (VHH)
VHH: EVQLVESGGGVVQPGGSLRLSCVASWDVHKLNFYGWYRQAPGKEREKVAHISIGDQTDYADSAKGRFTISRDESKNMVYLQMNSLRPEDTALYFCRAMSKIWPYDYWGQGTLVTVSS
B23: T017000406 (VHH)
VHH: EVQLVESGGGVVQPGGSLRLSCVASGYVHQINFYGWYRQAPGKEREKVAHISIGDQTDYADSAKGRFTISRDESKNMVYLQMNSLRPEDTALYFCRAMSRIWPYDYWGQGTLVTVSS
B24: T017000410 (VHH)
VHH: EVQLVESGGGVVQPGGSLRLSCVASGYVHKLNFYGWYRQAPGKEREKVAHISIGDQTDYADSAKGRFTISRDESKNMVYLQMNSLRPEDTALYFCRAFSRIWPYDWWGQGTLVTVSS
B25: T017000419 (VHH)
VHH: EVQLVESGGGVVQPGGSLRLSCVASGAVHKLNFYGWYRQAPGKEREKVAHISIGDQTDYADSAKGRFTISRDESKNMVYLQMNSLRPEDTALYFCRAMSRIWPYDYWGQGTLVTVSS
B26: T017000515 (VHH)
VHH: EVQLVESGGGVVQPGGSLRLSCVASGAVHKINFLGWYRQAPGKEREKVAHISIGDQTDYADSAKGRFTISRDESKNMVYLQMNSLRPEDTALYFCRAMSRIWPYDYWGQGTLVTVSS
B27: T017000408 (VHH)
VHH: EVQLVESGGGVVQPGGSLRLSCVASGSVHKINFYGWYRQAPGKEREKVAHISIGDQTDYADSAKGRFTISRDESKNMVYLQMNSLRPEDTALYFCRAMSRIWPYDYWGQGTLVTVSS
B28: T017000461 (VHH)
VHH: EVQLVESGGGVVQPGGSLRLSCVASGDVHQINFYGWYRQAPGKEREKVAHISIGDQTDYADSAKGRFTISRDESKNMVYLQMNSLRPEDTALYFCRAMSRIWPYDYWGQGTLVTVSS
B29: T017000415 (VHH)
VHH: EVQLVESGGGVVQPGGSLRLSCVASWDVHQINFYGWYRQAPGKEREKVAHISIGDQTDYADSAKGRFTISRDESKNMVYLQMNSLRPEDTALYFCRAMSRIWPYDYWGQGTLVTVSS
B30: T017000397 (VHH)
VHH: EVQLVESGGGVVQPGGSLRLSCVASGSVHQLNFLGWYRQAPGKEREKVAHISIGDQTDYADSAKGRFTISRDESKNMVYLQMNSLRPEDTALYFCRAMSRIWPYDYWGQGTLVTVSS
B31: T017000434 (VHH)
VHH: EVQLVESGGGVVQPGGSLRLSCVASGSVHKLNFYGWYRQAPGKEREKVAHISIGDQTDYADSAKGRFTISRDESKNMVYLQMNSLRPEDTALYFCRAMSRIYPYDYWGQGTLVTVSS
B32: T017000442 (VHH)
VHH: EVQLVESGGGVVQPGGSLRLSCVASGYVHKLNFYGWYRQAPGKEREKVAHISIGDQTDYADSAKGRFTISRDESKNMVYLQMNSLRPEDTALYFCRAMSRIYPYDYWGQGTLVTVSS

Target: T1, Cynomolgus …
Assay: SPR ProteOn off-rate screen

Point of comparison: B4, koff 0.00143 s⁻¹. Against it:
- B1 — within 1.5-fold, 0.00206 s⁻¹
- B2 — 6.8-fold lower, 0.000209 s⁻¹
- B3 — 1.7-fold higher, 0.00238 s⁻¹
- B5 — within 1.5-fold, 0.0017 s⁻¹
- B6 — within 1.5-fold, 0.00106 s⁻¹
- B7 — within 1.5-fold, 0.00187 s⁻¹
- B8 — within 1.5-fold, 0.00184 s⁻¹
- B9 — within 1.5-fold, 0.00161 s⁻¹
- B10 — within 1.5-fold, 0.00183 s⁻¹
- B11 — 2.3-fold lower, 0.000609 s⁻¹
- B12 — within 1.5-fold, 0.00182 s⁻¹
- B13 — 19-fold higher, 0.0268 s⁻¹
- B14 — 10-fold lower, 0.000142 s⁻¹
- B15 — within 1.5-fold, 0.00156 s⁻¹
- B16 — 6-fold lower, 0.000238 s⁻¹
- B17 — 1.6-fold higher, 0.00232 s⁻¹
- B18 — within 1.5-fold, 0.00152 s⁻¹
- B19 — 1.8-fold higher, 0.00263 s⁻¹
- B20 — 1.9-fold higher, 0.00275 s⁻¹
- B21 — 1.6-fold higher, 0.00223 s⁻¹
- B22 — 4.1-fold lower, 0.000346 s⁻¹
- B23 — within 1.5-fold, 0.00138 s⁻¹
- B24 — within 1.5-fold, 0.00159 s⁻¹
- B25 — within 1.5-fold, 0.0011 s⁻¹
- B26 — within 1.5-fold, 0.00126 s⁻¹
- B27 — 2-fold lower, 0.000714 s⁻¹
- B28 — within 1.5-fold, 0.00206 s⁻¹
- B29 — 1.6-fold lower, 0.000918 s⁻¹
- B30 — 1.7-fold higher, 0.00245 s⁻¹
- B31 — within 1.5-fold, 0.00153 s⁻¹
- B32 — within 1.5-fold, 0.00146 s⁻¹
